Laboratory results reported in patent publication US20230293647A1 (AUTOLUS, published 2023).

Tests used:
Experiment in all cases: cell microarray
KCNAB2 = target: T1, KCNAB2 (human, UniProt Q13303)
T1 sequence (looked up): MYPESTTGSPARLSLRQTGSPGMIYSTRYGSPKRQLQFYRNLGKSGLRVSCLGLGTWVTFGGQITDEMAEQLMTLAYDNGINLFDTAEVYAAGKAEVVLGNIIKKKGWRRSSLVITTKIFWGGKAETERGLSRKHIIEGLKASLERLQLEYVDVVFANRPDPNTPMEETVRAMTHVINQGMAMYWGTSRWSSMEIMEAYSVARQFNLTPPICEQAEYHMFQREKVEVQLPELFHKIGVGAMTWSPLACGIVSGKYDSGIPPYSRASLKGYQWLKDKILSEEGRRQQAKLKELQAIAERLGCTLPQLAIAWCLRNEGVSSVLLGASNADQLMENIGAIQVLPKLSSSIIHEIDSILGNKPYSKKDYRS

TTYH2 = target: T2, TTYH2 (human, UniProt Q9BSA4)
T2 sequence (looked up): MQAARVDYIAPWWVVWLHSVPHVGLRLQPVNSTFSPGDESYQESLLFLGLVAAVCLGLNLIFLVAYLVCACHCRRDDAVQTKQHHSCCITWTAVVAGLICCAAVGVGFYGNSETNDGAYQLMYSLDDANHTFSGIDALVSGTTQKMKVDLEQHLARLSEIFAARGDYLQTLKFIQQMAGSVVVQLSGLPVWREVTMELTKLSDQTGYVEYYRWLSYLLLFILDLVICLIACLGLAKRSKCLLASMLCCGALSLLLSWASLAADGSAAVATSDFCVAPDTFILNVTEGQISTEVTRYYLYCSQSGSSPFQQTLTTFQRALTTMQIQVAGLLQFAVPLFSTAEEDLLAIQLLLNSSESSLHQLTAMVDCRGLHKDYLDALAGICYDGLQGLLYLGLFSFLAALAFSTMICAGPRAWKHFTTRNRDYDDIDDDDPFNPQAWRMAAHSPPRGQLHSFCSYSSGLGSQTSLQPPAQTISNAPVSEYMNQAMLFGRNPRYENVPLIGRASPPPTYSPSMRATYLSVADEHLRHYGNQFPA

CXCL12 = CXCL12 (human, UniProt P48061)
Sequence of CXCL12 (P48061 22-89 limits assumed): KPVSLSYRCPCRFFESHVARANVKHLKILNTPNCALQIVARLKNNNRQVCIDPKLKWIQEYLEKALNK

SIGLEC15 = target: T3, SIGLEC15 (human, UniProt Q6ZMC9)
T3 sequence (looked up): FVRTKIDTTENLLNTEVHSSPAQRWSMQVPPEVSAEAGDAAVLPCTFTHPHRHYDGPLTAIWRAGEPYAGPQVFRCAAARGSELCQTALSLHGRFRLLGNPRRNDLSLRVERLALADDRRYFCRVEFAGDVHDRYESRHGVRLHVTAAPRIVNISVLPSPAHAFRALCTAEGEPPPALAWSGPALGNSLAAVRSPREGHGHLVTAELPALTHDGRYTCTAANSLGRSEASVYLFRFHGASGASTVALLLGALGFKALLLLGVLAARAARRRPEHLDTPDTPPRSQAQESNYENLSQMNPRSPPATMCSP

SIGLEC14 = target: T4, SIGLEC14 (human, UniProt Q08ET2)
T4 sequence (looked up): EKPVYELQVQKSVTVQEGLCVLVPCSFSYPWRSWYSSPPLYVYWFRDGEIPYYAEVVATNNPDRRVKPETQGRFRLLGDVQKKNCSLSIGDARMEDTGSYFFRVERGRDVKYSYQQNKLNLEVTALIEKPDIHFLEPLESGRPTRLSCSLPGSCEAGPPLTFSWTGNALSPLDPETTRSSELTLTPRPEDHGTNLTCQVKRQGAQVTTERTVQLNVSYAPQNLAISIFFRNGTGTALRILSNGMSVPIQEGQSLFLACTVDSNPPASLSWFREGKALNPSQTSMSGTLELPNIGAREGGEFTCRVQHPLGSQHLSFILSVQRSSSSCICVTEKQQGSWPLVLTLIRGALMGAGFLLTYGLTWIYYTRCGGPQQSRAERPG

LGALS1 = LGALS1 (human, UniProt P09382)
Sequence of LGALS1 (P09382 2-135 limits assumed): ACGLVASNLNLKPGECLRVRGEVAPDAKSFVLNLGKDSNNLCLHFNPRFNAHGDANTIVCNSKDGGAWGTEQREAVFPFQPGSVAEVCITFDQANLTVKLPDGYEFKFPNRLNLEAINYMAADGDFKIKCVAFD

PRCD = target: T5, PRCD (human, UniProt Q00LT1)
T5 sequence (looked up): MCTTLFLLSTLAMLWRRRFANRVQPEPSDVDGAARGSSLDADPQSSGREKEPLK

[1] = target: SARS-CoV-2 full length Spike expressed on cells (SARS-CoV-2, UniProt P0DTC2 14-1273)
FcγRIa (cell microarray) = FcγRIa (cell microarray) (human, UniProt P12314 16-374)
Sequence of FcγRIa (cell microarray) (P12314 16-374): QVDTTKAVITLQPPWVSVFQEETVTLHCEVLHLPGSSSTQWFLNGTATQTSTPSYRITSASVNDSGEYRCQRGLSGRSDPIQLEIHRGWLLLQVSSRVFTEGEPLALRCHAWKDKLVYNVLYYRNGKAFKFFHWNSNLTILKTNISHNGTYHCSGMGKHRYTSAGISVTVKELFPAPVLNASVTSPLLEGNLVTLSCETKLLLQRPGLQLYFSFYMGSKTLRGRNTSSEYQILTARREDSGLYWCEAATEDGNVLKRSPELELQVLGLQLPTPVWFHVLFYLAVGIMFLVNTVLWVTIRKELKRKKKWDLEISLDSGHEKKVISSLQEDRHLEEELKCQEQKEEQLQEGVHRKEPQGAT

IGF1 = IGF1 (human, UniProt P05019)
ADGRG7 = target: T6, ADGRG7 (human, UniProt Q96K78)
T6 sequence (looked up): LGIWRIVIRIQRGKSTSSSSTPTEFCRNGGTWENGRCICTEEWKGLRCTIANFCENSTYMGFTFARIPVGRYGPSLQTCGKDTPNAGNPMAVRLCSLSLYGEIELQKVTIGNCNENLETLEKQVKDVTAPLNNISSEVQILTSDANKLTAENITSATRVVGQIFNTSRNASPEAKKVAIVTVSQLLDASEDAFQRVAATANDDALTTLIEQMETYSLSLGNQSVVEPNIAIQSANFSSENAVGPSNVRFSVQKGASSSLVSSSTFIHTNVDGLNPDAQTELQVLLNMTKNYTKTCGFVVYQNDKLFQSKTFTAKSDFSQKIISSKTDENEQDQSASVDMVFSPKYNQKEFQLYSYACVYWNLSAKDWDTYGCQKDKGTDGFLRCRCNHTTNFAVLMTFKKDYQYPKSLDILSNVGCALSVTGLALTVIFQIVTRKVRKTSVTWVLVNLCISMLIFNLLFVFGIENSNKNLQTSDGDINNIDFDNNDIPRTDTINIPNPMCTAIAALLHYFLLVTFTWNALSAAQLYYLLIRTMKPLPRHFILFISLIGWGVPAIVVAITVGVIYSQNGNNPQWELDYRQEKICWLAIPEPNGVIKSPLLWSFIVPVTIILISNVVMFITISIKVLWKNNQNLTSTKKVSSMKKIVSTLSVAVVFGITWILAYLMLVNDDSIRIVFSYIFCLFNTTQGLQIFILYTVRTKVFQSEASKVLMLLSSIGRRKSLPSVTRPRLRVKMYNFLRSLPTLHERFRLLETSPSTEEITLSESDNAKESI

Measured: binding result

B1: Fc LALA-PG only construct with the ACE2 domain omitted (other)
chain: EPKSCDKTHTCPPCPAPEAAGGPSVFLFPPKPKDTLMISRTPEVTCVVVDVSHEDPEVKFNWYVDGVEVHNAKTKPREEQYNSTYRVVSVLTVLHQDWLNGKEYKCKVSNKALGAPIEKTISKAKGQPREPQVYTLPPSREEMTKNQVSLTCLVKGFYPSDIAVEWESNGQPENNYKTTPPVLDSDGSFFLYSKLTVDKSRWQQGNVFSCSVMHEALHNHYTQKSLSLSPGK
notes: also called control Fc (LALA-PG)
no binding: KCNAB2 | TTYH2 | CXCL12 | SIGLEC15 | SIGLEC14 | LGALS1 | PRCD | [1] | FcγRIa (cell microarray) | IGF1 | ADGRG7
